Results reported in PMC7873571.

Target: Gli1 (from hisSUMO-Gli1, Addgene 87225, His-SUMO tag cleaved) (UniProt P08151 234-388)
Test: SPR

Sequence of Gli1 (from hisSUMO-Gli1, Addgene 87225, His-SUMO tag cleaved) (P08151 234-388): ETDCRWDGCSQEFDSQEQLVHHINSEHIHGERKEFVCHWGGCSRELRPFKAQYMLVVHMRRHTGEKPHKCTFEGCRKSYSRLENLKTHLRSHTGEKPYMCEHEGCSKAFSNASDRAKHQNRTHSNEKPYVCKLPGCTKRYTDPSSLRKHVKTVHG

B1: biotinylated GLI1 consensus dsDNA (SPR) (dsDNA)
DNA 1: ACGTGGACCACCCAAGACGAA
DNA 2: TTTCGTCTTGGGTGGTCCACGT
B1: binds.
